Source: patent publication US20160046928A1 (Bicycle, published 2016)
Starred links: 1 amine or outer side, 2 acyl side, 3 side chain; linkers in the order of their positions; H or OH if unused. Positions of bridges follow the written chain, without caps; N, C: chain ends. Non-standard residues stand in square brackets, D forms with d. TBMB = c1c(C[*:1])cc(C[*:3])cc1C[*:2]; NMeR = CN[C@@H](CCCNC(=N)N)C(=O)O

Molecular target: kallikrein (UniProt P03952 20-638, limits assumed)
Assay: cell-based or functional assay

Sequence of kallikrein (P03952 20-638 limits assumed): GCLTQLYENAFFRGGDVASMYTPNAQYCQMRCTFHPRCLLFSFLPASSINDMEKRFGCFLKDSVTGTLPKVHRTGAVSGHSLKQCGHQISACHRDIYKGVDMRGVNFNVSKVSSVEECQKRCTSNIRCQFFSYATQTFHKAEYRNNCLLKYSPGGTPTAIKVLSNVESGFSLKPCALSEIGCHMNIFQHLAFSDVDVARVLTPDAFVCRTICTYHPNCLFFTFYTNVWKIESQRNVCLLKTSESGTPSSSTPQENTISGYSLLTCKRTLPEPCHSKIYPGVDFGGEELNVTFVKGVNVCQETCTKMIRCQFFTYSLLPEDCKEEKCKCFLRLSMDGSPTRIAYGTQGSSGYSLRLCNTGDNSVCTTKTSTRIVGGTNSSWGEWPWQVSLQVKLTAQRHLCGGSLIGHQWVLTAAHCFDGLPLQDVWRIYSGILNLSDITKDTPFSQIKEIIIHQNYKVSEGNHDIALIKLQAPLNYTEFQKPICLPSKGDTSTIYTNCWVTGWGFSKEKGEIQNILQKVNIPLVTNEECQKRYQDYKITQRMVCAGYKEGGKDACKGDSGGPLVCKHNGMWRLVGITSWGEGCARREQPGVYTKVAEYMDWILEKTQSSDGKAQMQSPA

Row | Binder | inhibition of kallikrein activity (IC50, substrate Z-Phe-Arg-amc, fluorescence)
1 | H-ACSDR[dF]RNCPADEALCG-OH (linker 2-9-16 via TBMB) [H-ACSDRfRNCPADEALCG-OH (D-Phe variant of PK15), TBMB conjugate] | 4 µM
2 | H-ACSDRFRNCPADEALCG-OH (linker 2-9-16 via TBMB; also: reduced peptide bond Y[CH2NH] between Phe6 and Arg7) [H-ACSDRF Y[CH2NH] RNCPADEALCG-OH (reduced peptide bond variant of PK15), TBMB conjugate] | 16.6 µM
3 | H-ACSDRF[NMeR]NCPADEALCG-OH (linker 2-9-16 via TBMB) [H-ACSDRF-(NMeArg)-NCPADEALCG-OH (N-methyl-arginine variant of PK15), TBMB conjugate] | 3.1 µM
